In patent CN114249819A:

Assays:
[1] = target: 猫泛白细胞减少症病毒1009株 (Feline panleukopenia virus); test: indirect immunofluorescence on acetone-fixed F81 cells infected with FPV 1009 strain
[2] = target: 猫泛白细胞减少症病毒1009株 (Feline panleukopenia virus); test: cell-based or functional assay

B1: 单克隆抗体3C3 (antibody, V domains shown)
VH: DVKLVESGGGLVNLGGSLKLSCAASGFTFSSYYMSWVRQTPEKRLELVAAINSNGGGTHSPDTVKGRFTISRDNAKNTLYLQMSSLESEDTALYYCARHADDGSFGLNWYFDVWGAGTTVTVSS
VL: DIVMSQSPSSLAVSVGEKVTMSCKSSQSLLYRSNEKNYLAWYQQKPGQSPKLLIYWGSTRESGVPDRFTGSGSGTDFTLTISSVKAEDLAVYYCHQYYRYSYTFGGGTKLEIK
For B1, the IFA效价 (reciprocal dilution (printed 1:n)) [1] was 6400 and the HI效价 (reciprocal dilution (printed 1:n)) [2] was 5120.
